Where a chain is given by its changes, count along the chain named. Where two headings read alike, the source gives them in different places.

Common to all, as to assay: flow cytometry
Assay [1] deals with T1, cynomolgus monkey OX40 (cynomolgus monkey).
T1 chain: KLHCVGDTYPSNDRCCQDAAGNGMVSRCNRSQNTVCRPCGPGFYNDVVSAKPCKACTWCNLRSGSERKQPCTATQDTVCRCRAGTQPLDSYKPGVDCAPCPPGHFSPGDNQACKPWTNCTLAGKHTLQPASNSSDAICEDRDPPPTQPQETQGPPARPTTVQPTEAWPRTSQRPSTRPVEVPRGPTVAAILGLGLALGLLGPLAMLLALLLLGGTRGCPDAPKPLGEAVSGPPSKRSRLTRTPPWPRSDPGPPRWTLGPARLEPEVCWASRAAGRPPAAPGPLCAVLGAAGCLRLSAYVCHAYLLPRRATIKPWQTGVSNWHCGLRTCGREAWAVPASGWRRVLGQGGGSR

For assay [2], the target named is T2, human OX40 (human, UniProt P43489 29-277).
T2 chain: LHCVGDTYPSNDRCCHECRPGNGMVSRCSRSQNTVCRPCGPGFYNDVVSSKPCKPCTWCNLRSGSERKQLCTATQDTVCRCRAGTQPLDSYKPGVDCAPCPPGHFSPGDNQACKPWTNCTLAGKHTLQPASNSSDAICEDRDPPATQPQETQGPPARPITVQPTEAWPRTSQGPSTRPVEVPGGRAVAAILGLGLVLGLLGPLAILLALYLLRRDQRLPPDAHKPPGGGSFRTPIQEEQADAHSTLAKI

The target of assay [3] is T2, human OX40.
The target in assay [4] is T2, human OX40.

B1: mono-mut23-20E5 (Fc fusion)
chain: IWELKKDVYVVELDWYPDAPGEMVVLTCDTPEEDGITWTLDQSSEVLGSGKTLTIQVKEFGDAGQYTCHKGGEVLSHSLLLLHKKEDGIWSTDILKDQKEPKNKTFLRCEAKNYSGRFTCWWLTTISTDLTFSVKSSRGSSDPQGVTCGAATLSAERVRGDNKEYEYSVECQEDSACPAAEESLPIEVMVDAVHKLKYENYTSSFFIRDIIKPDPPKNLQLKPLKNSRQVEVSWEYPDTWSTPHSYFSLTFSVQVQGKSKREKKDRVFTDKTSATVICRKNASISVRAQDRYYSSSWSEWASVPCSGGGGSGGGGSGGGGSGGGGSGGGGSRNLPVATPDPGMFPCLHHSQNLLRAVSNMLQKARQTLEFSPCTSEEIDHEDITKDKTSTVEACLPLELTKNESCLNSRETSFITNGSCLASRKTSFMMALCLSSIYEDLKMYQVEFKTMNAKLLMDPKRQIFLDQNMLAVIDELMQALNFNSETVPQKSSLEEPDFYKTAIKLCILLHAFRIRAVTIDRVMSYLNASGGGGSGGGGSEPKSSDKTHTCPPCPAPEFEGGPSVFLFPPKPKDTLMISRTPEVTCVVVDVSHEDPEVKFNWYVDGVEVHNAKTKPREEQYNSTYRVVSVLTVLHQDWLNGKEYKCKVSNKALPASIEKTISKAKGQPREPQVCTLPPSRDELTKNQVSLSCAVKGFYPSDIAVEWESNGQPENNYKTTPPVLDSDGSFFLVSKLTVDKSRWQQGNVFSCSVMHEALHNHYTQKSLSLSPG
heavy: QVQLVQSGAEVKKPGASVKVSCKASGYTFTSYVMHWVRQAPGQRLEWIGYINPYNDGTKYNEKFKGRATLTSDKSASTAYMELSSLRSEDTAVYYCANYYGSSLSMDYWGQGTLVTVSSASTKGPSVFPLAPSSKSTSGGTAALGCLVKDYFPEPVTVSWNSGALTSGVHTFPAVLQSSGLYSLSSVVTVPSSSLGTQTYICNVNHKPSNTKVDKKVEPKSCDKTHTCPPCPAPEFEGGPSVFLFPPKPKDTLMISRTPEVTCVVVDVSHEDPEVKFNWYVDGVEVHNAKTKPREEQYNSTYRVVSVLTVLHQDWLNGKEYKCKVSNKALPASIEKTISKAKGQPREPQVYTLPPCRDELTKNQVSLWCLVKGFYPSDIAVEWESNGQPENNYKTTPPVLDSDGSFFLYSKLTVDKSRWQQGNVFSCSVMHEALHNHYTQKSLSLSPG
light: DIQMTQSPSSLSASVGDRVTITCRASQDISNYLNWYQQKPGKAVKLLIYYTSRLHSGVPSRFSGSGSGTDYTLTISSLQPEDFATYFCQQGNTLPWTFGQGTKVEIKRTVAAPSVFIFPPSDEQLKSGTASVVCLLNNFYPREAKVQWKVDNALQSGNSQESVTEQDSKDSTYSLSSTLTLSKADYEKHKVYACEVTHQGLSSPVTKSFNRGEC
Broadly, the EC50 is the concentration giving half of the maximal effect. As to B1, the EC50 came out at 111 nM in assay [1], 92.6 nM in assay [2] and 59.2 nM in assay [3].

B2: mono-mut23-20E5_V5 (Fc fusion)
chain: B1 chain
heavy: B1 heavy with D56A
light: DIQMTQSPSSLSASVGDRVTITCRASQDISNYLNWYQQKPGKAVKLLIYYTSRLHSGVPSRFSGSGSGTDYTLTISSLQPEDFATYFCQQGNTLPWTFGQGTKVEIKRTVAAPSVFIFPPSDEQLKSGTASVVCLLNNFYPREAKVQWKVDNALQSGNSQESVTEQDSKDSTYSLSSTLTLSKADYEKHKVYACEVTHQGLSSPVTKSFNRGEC
In assay [2], B2 displayed an EC50 of 73 nM.

B3: mono-mut23-12H3_V8 (Fc fusion)
chain: B1 chain
heavy: QVQLVQSGAEVKKPGSSVKVSCKASGYTFKDYTMHWVRQAPGQGLEWIGGIYPNQGGSTYNQNFKDRVTLTADKSTSTAYMELSSLRSEDTAVYYCARIGYHGPHLDFDVWGQGTTVTVSSASTKGPSVFPLAPSSKSTSGGTAALGCLVKDYFPEPVTVSWNSGALTSGVHTFPAVLQSSGLYSLSSVVTVPSSSLGTQTYICNVNHKPSNTKVDKKVEPKSCDKTHTCPPCPAPEFEGGPSVFLFPPKPKDTLMISRTPEVTCVVVDVSHEDPEVKFNWYVDGVEVHNAKTKPREEQYNSTYRVVSVLTVLHQDWLNGKEYKCKVSNKALPASIEKTISKAKGQPREPQVYTLPPCRDELTKNQVSLWCLVKGFYPSDIAVEWESNGQPENNYKTTPPVLDSDGSFFLYSKLTVDKSRWQQGNVFSCSVMHEALHNHYTQKSLSLSPG
light: DIQMTQSPSSLSASVGDRVTITCKASQDVGAAVAWYQQKPGKAPKLLIYWASTRHTGVPSRFSGSGSGTDFTLTISSLQPEDFATYYCQQYINYPLTFGGGTKVEIKRTVAAPSVFIFPPSDEQLKSGTASVVCLLNNFYPREAKVQWKVDNALQSGNSQESVTEQDSKDSTYSLSSTLTLSKADYEKHKVYACEVTHQGLSSPVTKSFNRGEC
As for B3, in assay [4], the EC50 was 1910 nM.

B4: mono-mut23-20E5_V6 (Fc fusion)
chain: B1 chain
heavy: B1 heavy with G57A
light: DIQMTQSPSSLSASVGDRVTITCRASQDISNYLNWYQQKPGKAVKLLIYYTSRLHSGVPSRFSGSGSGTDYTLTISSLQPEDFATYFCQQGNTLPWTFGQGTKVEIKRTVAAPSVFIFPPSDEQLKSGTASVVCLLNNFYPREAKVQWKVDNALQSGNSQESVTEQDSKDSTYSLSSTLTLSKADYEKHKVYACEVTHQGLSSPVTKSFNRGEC
In turn, B4 registered an EC50 in assay [2] of 538 nM.

B5: mono-mut23-12H3_V3 (Fc fusion)
chain: B1 chain
heavy: B3 heavy with I99M
light: B3 light
For the molecule B5, in assay [4], the EC50 was determined as 839 nM.

B6: mono-mut23-12H3_V4 (Fc fusion)
chain: B1 chain
heavy: B3 heavy with Q55A, I99M
light: B3 light
In assay [4], B6 returned an EC50 of 1880 nM.

B7: mono-mut23-12H3 (Fc fusion)
chain: B1 chain
heavy: B3 heavy with Q55N, I99M
light: B3 light
On to B7, for which the EC50 turned out to be 19.2 nM in assay [1] and 15.6 nM in assay [3].

B8: mono-mut23-20E5_V4 (Fc fusion)
chain: B1 chain
heavy: B1 heavy with D56E
light: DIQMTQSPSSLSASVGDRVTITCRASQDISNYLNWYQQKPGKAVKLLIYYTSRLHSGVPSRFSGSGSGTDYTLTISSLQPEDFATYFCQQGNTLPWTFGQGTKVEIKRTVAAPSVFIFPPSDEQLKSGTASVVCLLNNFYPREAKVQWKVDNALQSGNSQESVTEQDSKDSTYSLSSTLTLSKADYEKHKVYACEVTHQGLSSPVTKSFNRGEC
The molecule B8 came in with an EC50 in assay [2] of 69.2 nM.

For the origin of these results see patent US20250236653A1 (published 2025).
